One test concerns the target MAb MSL-109. Description: ELISA. As to conditions: read off a plot. For orientation: ELISA stands for enzyme-linked immunosorbent assay.
For test [1], the target named is recombinant gH/gL/gO trimer (human cytomegalovirus | human cytomegalovirus strain VR1814). Briefly: SPR; Biacore X100, CM5 chip, RT, 1:1 binding model; methods: antibody (4 μg/mL) captured by anti-human Fc IgG to about 100 RU, pentamer or trimer in five 2-fold dilutions injected at 30 μL/min, 90 s association, 600 s dissociation (the legend of Fig. 5 tells the reverse orientation). (SPR reads the build-up and loss of mass on a sensor chip optically.)

Turning to “recombinant gH/gL/UL128/UL130/UL131A pentamer (wild type) gH:D446A”, the percent of parent with MAb MSL-109 worked out at 46%.

As a reminder, the Kd is a measure of binding affinity in units of concentration. The term koff denotes the rate constant with which the complex falls apart. Broadly, the kon is a measure of how fast the partners come together. As to MAb MSL-109 (antibody), in test [1], the Kd worked out at 20.7 nM, the dissociation rate constant (koff) is 0.00987 s⁻¹ and the on-rate constant (kon) was determined as 476000 M⁻¹ s⁻¹.

On to “recombinant gH/gL/UL128/UL130/UL131A pentamer (wild type) gH:W168A”, for which the percent of parent with MAb MSL-109 is 3%.

Take “recombinant gH/gL/UL128/UL130/UL131A pentamer (wild type) gH:P171A”: the percent of parent in the test with MAb MSL-109 was 6%.
